This note sets out measurements from PMC1074310.

For the assay, the target named is T1, tumor necrosis factor receptor-associated factor 2 (TRAF2) fused to CFP, YFP or mRFP, Q12933.
T1 chain: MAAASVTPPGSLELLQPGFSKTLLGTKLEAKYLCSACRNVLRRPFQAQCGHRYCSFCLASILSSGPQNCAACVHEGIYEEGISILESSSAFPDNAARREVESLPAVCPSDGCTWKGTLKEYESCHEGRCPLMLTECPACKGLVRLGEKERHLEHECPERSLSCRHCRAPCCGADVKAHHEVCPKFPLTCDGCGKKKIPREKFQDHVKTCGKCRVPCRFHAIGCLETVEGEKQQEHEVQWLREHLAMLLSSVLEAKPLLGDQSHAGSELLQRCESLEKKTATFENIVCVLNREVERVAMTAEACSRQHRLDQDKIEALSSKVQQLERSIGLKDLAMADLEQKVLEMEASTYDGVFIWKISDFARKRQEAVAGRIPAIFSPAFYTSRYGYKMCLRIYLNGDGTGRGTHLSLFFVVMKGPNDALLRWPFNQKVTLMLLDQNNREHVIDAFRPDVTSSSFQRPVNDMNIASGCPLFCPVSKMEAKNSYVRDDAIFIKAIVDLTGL
In words: FRET or BRET. Conditions: remark: other sources report otherwise.

B1: tumor necrosis factor receptor-associated factor 2 (TRAF2) fused to CFP, YFP or mRFP, Q12933 1-501 (natural protein)
chain: T1 chain
For the molecule B1, the FRET1 (CFP→YFP) MFI, cells with CFP-TRAF2, YFP-TRAF2 and mRFP came to 10.9 MFI; the FRET3 (CFP→mRFP) MFI, cells with CFP-TRAF2, YFP and mRFP-TRAF2 was 32.7 MFI; the stoichiometry N is 3; the two-step FRET (CFP→YFP→mRFP) MFI, cells with CFP-TRAF2, YFP-TRAF2 and mRFP-TRAF2 worked out at 58.6 MFI.
